Assay results published in the Immune Epitope Database (IEDB).

Key:
[1] = target: HLA-B*51:01; experiment: IEDB peptide-MHC binding, purified MHC/competitive/radioactivity; filed as Kd, often an IC50 or EC50 that approximates it; ≥ and ≤ were set here for values at or beyond the usual limits of such assays
[2] = target: HLA-B*15:01; experiment: as above
[3] = target: HLA-A*23:01; experiment: as above
[4] = target: HLA-A*24:02; experiment: as above
[5] = target: HLA-A*01:01; experiment: as above
[6] = target: HLA-A*26:01; experiment: as above
[7] = target: HLA-A*29:02; experiment: as above
[8] = target: HLA-A*30:02; experiment: as above
[9] = target: HLA-B*18:01; experiment: IEDB peptide-MHC binding, purified MHC/direct/fluorescence; filed as Kd, often an IC50 or EC50 that approximates it; ≥ and ≤ were set here for values at or beyond the usual limits of such assays; details: source organism: Influenza A virus (A/tern/Australia/1/04(H2N5))
[10] = target: HLA-B*40:01; experiment: as above; details: source organism: Influenza A virus (A/tern/Australia/1/04(H2N5))
[11] = target: HLA-B*44:02; experiment: as above; details: source organism: Influenza A virus (A/tern/Australia/1/04(H2N5))
[12] = target: HLA-A*30:01; experiment: IEDB peptide-MHC binding, purified MHC/competitive/radioactivity; filed as Kd, often an IC50 or EC50 that approximates it; ≥ and ≤ were set here for values at or beyond the usual limits of such assays
[13] = target: HLA-A*32:01; experiment: as above
[14] = target: HLA-B*35:01; experiment: as above; details: source organism: Dengue virus 3 Sri Lanka/1266/2000
[15] = target: HLA-A*01:01; experiment: IEDB peptide-MHC binding, purified MHC/direct/fluorescence; filed as Kd, often an IC50 or EC50 that approximates it; ≥ and ≤ were set here for values at or beyond the usual limits of such assays; details: source organism: SARS-CoV1
[16] = target: HLA-B*15:01; experiment: as above; details: source organism: SARS-CoV1
[17] = target: HLA-B*58:01; experiment: as above; details: source organism: SARS-CoV1
[18] = target: HLA-B*53:01; experiment: IEDB peptide-MHC binding, purified MHC/competitive/radioactivity; filed as Kd, often an IC50 or EC50 that approximates it; ≥ and ≤ were set here for values at or beyond the usual limits of such assays; details: source organism: Dengue virus 3 Martinique/1243/1999
[19] = source organism: Dengue virus 1 Brazil/97-11/1997
[20] = source organism: Vaccinia virus WR
[21] = source organism: Dengue virus 1 Nauru/West Pac/1974
[22] = source organism: SARS coronavirus Tor2
[23] = source organism: Dengue virus 4 Philippines/H241/1956
[24] = source organism: Mammarenavirus guanaritoense
[25] = source organism: Mammarenavirus brazilense
[26] = source organism: Dengue virus 3 Sri Lanka/1266/2000
[27] = source organism: Dengue virus 2 Jamaica/1409/1983
[28] = source organism: Lassa virus Josiah
[29] = source organism: Mammarenavirus choriomeningitidis

## IALFLAHAI
[1]; [19]
  Kd: 135 nM

## MLHNFLPHM
[2]; [20]
  Kd: 41 nM

## LYAVATTII
[3]; [21]
  Kd: 0.211 µM
[4]; [21]
  Kd: 59.7 nM
[1]; [21]
  Kd: 1390 nM

## HYVRITGLY
[5]; [22]
  Kd: 18.2 µM
[3]; [22]
  Kd: 7.53 µM
[4]; [22]
  Kd: ≥ 22700 nM
[6]; [22]
  Kd: 0.149 µM
[7]; [22]
  Kd: 0.111 µM
[8]; [22]
  Kd: ≥ 27600 nM

## KQSNTNKHM
[2]; [20]
  Kd: 27.8 nM

## SETQGTEKL
[9]
  Kd: 2040 nM
[10]
  Kd: 10.5 nM
[11]
  Kd: ≥ 20 µM

## GQTGIQRTVF
[2]; [23]
  Kd: 5.95 nM

## LTKHPNQEY
[5]; [22]
  Kd: 17.3 µM
[3]; [22]
  Kd: ≥ 77.8 µM
[4]; [22]
  Kd: ≥ 77600 nM
[6]; [22]
  Kd: ≥ 34.3 µM
[7]; [22]
  Kd: 3.4 µM
[8]; [22]
  Kd: 153 nM

## FNYCEGTTVV
[1]; source organism: Dengue virus 3 Martinique/1243/1999
  Kd: 1220 nM

## VFQPSTGNYV
[5]; [24]
  Kd: ≥ 70.4 µM
[3]; [24]
  Kd: 5.66 µM
[4]; [24]
  Kd: 1530 nM
[6]; [24]
  Kd: ≥ 69.7 µM
[7]; [24]
  Kd: ≥ 31.6 µM
[8]; [24]
  Kd: 1010 nM

## RFSTSLLFL
[4]; [23]
  Kd: 77.1 nM

## NKDGFLYVY
[5]; [22]
  Kd: 13.9 µM
[3]; [22]
  Kd: ≥ 77.8 µM
[4]; [22]
  Kd: ≥ 77600 nM
[6]; [22]
  Kd: 14.3 µM
[7]; [22]
  Kd: 1.13 µM
[8]; [22]
  Kd: 2830 nM

## HSIKRNYPY
[5]; [25]
  Kd: 0.053 µM
[6]; [25]
  Kd: 0.66 µM
[7]; [25]
  Kd: 0.262 µM
[12]; [25]
  Kd: 141 nM
[8]; [25]
  Kd: 42.3 nM
[13]; [25]
  Kd: 1720 nM

## MLFYLEEPI
[13]; [20]
  Kd: 2.51 nM
[2]; [20]
  Kd: 45.2 nM

## GMYCRCSHG
[2]; [20]
  Kd: 216 nM

## APCKVPIEI
[1]; [23]
  Kd: ≥ 77400 nM

## LIVSGIFPY
[6]; [26]
  Kd: 1.16 µM
[8]; [26]
  Kd: ≥ 76900 nM
[2]; [26]
  Kd: 2.91 nM
[14]
  Kd: 82.7 nM

## FTERSDKSY
[15]
  Kd: 65 nM
[16]
  Kd: 497 nM
[17]
  Kd: 2800 nM
[3]; [22]
  Kd: ≥ 77.8 µM
[4]; [22]
  Kd: ≥ 77600 nM
[6]; [22]
  Kd: 6.23 µM
[7]; [22]
  Kd: 0.0685 µM
[8]; [22]
  Kd: 53.5 nM

## STGNYVHCF
[5]; [24]
  Kd: 1.3 µM
[6]; [24]
  Kd: ≥ 69.2 µM
[7]; [24]
  Kd: ≥ 35.9 µM
[12]; [24]
  Kd: 2740 nM
[8]; [24]
  Kd: ≥ 20300 nM
[13]; [24]
  Kd: 12100 nM

## VTYLALLAAF
[5]; [27]
  Kd: 14.8 µM
[6]; [27]
  Kd: ≥ 69.7 µM
[2]; [27]
  Kd: 40.7 nM

## KTFFWFNEV
[5]; [25]
  Kd: 11.5 µM
[6]; [25]
  Kd: 12.5 µM
[7]; [25]
  Kd: 18.6 µM
[12]; [25]
  Kd: 93.2 nM
[8]; [25]
  Kd: 59.2 nM
[13]; [25]
  Kd: 7.26 nM

## IMMLKLLTEF
[4]; [19]
  Kd: 309 nM
[2]; [19]
  Kd: 6.24 nM

## SSGCYIHFF
[5]; [28]
  Kd: 0.195 µM
[6]; [28]
  Kd: ≥ 64.1 µM
[7]; [28]
  Kd: ≥ 10 µM
[12]; [28]
  Kd: 6860 nM
[8]; [28]
  Kd: 11500 nM
[13]; [28]
  Kd: ≥ 33600 nM

## KTGESSRSY
[5]; [29]
  Kd: 3.66 µM
[6]; [29]
  Kd: ≥ 77.9 µM
[7]; [29]
  Kd: 16.7 µM
[12]; [29]
  Kd: 1090 nM
[8]; [29]
  Kd: 63.3 nM
[13]; [29]
  Kd: 14300 nM

## WIAASIILEF
[2]; [27]
  Kd: 6.22 nM

## MSPCRMFSF
[2]; [20]
  Kd: 17.3 nM

## NVINYFNRM
[2]; [20]
  Kd: 960 nM

## EPVPMSTYGW
[18]
  Kd: 158 nM

## SIKNLVSQF
[2]; [20]
  Kd: 24.7 nM

## LAIPPTAGI
[1]; [19]
  Kd: 393 nM

## SIISLFYTF
[13]; [20]
  Kd: 5.71 nM
[2]; [20]
  Kd: 1.37 nM
